Among the data in article PMC9250616 (Angiogenesis, 2022) are Kd values, retold here.

The target in one assay is Collagen I. In words: ELISA. Background: An ELISA detects its analyte on a solid surface through an enzyme-linked reagent.
The target in the next assay is Collagen VI. In words: ELISA.

As usually defined, the Kd is the equilibrium constant for the complex coming apart. A high value points to weaker binding.

Collagen VI, sequence (P12109 20-1028, chain 1 of 3): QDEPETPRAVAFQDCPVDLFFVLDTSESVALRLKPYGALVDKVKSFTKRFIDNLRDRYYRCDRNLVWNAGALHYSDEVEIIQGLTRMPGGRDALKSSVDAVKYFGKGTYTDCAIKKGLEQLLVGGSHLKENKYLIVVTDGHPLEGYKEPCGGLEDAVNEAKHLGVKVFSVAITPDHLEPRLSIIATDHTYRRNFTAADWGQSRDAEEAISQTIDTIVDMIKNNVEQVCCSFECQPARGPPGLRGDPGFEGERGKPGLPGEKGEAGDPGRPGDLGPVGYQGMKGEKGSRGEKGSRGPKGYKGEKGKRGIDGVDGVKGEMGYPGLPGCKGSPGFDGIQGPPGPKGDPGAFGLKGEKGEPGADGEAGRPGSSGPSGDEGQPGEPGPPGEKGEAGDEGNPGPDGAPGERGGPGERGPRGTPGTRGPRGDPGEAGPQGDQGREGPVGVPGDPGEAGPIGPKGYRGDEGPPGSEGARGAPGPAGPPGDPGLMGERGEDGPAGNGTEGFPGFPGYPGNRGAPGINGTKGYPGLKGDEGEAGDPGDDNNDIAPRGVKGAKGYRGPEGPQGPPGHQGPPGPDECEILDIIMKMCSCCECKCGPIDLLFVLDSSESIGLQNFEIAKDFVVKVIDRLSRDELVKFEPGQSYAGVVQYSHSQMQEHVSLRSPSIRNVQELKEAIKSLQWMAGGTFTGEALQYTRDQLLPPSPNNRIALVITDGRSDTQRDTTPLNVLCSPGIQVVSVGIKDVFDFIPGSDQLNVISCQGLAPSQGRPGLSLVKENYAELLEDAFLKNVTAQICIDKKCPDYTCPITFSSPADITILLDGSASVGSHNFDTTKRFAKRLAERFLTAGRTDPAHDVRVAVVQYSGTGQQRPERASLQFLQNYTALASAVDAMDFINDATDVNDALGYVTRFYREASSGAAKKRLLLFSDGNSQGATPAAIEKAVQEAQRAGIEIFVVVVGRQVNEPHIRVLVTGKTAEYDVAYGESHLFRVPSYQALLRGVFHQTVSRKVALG
Collagen VI, sequence (P12110 21-1019, chain 2 of 3, further chain): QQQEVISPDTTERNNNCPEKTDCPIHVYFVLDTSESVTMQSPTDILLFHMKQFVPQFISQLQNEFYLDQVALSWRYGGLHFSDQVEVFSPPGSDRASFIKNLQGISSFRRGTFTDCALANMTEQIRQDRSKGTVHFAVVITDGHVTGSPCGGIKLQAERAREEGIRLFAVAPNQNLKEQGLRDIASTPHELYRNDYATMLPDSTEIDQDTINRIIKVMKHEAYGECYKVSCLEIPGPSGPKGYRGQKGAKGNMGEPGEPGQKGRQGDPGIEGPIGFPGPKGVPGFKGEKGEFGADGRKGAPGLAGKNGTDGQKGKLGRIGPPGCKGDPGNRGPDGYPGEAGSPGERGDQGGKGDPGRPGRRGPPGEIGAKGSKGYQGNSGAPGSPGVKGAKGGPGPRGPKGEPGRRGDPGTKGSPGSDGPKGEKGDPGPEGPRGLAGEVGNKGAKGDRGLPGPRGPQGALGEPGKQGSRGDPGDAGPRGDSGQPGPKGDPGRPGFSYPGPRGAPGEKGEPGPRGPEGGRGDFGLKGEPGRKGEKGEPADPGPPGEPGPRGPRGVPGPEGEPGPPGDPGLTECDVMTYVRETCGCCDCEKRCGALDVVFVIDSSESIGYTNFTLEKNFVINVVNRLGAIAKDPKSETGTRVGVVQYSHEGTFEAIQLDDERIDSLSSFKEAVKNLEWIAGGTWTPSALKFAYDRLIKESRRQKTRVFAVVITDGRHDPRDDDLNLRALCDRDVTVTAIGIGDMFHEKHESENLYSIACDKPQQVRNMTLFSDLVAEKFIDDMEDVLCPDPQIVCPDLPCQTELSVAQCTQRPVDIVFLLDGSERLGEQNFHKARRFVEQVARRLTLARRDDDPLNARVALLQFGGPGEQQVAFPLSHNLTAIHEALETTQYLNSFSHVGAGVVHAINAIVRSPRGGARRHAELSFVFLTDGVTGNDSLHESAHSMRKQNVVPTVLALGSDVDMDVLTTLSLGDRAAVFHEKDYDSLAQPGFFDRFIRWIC
Collagen VI, sequence (P12111 26-3177, chain 3 of 3, further chain): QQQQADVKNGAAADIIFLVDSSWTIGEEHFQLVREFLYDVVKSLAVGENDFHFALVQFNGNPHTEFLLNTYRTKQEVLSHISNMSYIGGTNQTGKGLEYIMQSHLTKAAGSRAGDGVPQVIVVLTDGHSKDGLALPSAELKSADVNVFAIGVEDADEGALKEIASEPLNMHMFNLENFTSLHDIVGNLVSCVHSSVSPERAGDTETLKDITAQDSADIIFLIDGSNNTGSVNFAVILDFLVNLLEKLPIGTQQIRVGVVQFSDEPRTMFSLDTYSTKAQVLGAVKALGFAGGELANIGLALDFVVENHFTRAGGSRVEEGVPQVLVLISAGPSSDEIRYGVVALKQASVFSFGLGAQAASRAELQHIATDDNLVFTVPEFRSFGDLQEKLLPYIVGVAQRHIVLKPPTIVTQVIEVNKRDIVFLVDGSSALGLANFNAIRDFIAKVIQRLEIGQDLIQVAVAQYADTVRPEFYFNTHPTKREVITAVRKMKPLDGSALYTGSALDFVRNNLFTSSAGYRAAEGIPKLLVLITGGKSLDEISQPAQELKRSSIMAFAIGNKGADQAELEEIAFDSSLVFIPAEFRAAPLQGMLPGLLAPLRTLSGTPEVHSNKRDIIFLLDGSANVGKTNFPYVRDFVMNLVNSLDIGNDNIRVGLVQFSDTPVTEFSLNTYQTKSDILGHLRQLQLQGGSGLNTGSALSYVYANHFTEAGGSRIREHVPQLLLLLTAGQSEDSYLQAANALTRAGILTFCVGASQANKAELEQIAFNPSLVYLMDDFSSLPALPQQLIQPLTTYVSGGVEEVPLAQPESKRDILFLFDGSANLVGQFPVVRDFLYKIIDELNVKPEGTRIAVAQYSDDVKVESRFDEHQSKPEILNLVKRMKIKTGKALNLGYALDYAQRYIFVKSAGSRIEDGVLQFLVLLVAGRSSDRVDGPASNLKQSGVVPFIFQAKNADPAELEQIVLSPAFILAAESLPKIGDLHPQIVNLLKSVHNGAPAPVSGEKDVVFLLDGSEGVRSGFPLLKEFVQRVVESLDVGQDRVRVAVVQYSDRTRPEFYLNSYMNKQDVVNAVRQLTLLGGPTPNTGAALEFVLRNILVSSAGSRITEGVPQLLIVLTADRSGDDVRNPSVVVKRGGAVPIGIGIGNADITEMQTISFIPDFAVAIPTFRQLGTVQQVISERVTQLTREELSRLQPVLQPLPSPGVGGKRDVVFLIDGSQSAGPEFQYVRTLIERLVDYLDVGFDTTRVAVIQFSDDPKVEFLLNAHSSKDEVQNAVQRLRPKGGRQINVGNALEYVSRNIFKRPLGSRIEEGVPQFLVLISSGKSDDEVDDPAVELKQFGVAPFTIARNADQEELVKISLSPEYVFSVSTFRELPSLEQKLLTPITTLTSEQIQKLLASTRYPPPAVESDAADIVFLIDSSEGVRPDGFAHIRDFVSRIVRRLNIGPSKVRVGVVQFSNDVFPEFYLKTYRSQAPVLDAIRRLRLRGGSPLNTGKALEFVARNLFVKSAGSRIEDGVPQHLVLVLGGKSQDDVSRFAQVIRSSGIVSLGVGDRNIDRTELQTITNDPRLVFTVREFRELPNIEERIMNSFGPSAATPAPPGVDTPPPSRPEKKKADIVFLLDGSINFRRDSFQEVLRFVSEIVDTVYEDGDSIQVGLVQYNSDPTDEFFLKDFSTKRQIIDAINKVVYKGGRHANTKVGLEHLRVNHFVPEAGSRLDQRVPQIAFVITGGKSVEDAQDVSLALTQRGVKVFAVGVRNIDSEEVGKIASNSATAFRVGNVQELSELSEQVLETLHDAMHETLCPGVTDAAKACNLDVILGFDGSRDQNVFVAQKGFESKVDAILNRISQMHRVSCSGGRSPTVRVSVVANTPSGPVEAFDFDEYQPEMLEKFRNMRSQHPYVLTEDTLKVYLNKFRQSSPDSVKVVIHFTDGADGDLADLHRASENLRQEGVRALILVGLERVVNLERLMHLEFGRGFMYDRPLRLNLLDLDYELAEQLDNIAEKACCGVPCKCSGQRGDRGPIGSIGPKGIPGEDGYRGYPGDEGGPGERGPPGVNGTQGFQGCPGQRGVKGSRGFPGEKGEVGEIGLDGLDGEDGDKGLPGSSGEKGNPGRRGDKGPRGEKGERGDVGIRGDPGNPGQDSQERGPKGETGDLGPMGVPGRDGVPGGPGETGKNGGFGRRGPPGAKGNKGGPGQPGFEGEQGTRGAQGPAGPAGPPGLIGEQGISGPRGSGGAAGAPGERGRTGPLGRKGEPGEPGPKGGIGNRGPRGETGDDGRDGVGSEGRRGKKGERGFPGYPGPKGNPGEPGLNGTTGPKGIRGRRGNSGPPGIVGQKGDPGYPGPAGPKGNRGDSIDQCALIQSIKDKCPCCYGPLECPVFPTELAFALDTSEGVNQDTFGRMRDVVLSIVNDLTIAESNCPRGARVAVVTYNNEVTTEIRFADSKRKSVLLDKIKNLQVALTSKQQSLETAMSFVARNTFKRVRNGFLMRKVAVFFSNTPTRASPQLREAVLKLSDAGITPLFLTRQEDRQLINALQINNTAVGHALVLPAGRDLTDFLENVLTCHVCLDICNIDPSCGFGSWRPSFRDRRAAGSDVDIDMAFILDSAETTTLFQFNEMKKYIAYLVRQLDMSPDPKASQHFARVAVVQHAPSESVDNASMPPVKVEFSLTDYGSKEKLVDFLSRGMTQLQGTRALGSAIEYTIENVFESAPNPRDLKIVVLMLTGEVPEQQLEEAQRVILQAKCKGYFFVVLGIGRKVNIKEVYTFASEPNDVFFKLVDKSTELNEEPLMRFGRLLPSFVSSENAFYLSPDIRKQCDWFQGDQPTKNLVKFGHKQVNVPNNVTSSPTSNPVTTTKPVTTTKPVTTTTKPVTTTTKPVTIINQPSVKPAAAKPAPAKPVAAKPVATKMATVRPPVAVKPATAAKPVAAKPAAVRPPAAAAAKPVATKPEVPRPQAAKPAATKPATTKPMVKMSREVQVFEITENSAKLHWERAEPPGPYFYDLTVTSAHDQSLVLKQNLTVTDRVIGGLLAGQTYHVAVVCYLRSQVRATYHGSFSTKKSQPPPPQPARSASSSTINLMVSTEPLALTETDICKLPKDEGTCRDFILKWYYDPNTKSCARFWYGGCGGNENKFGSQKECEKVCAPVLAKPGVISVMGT

B1: biotinylated CMG2-AviTag construct (capillary morphogenesis gene 2, anthrax toxin receptor 2) (receptor)
chain: not shown
modifications: biotin (biotinylated CMG2-AviTag construct)
Take B1: the Kd was determined as 500 nM in the assay with Collagen I and 800 nM in the assay with Collagen VI.
